Substitutions are numbered along the chain they refer to. One block for each molecule: values may come before it.
What was measured:
[1] = biological target: Matrix-associated proTGFβ1 complexes (hLTBP1-proTGFβ1 and hLTBP3-proTGFβ1); assay: BLI (Octet)
[2] = biological target: Cell-associated proTGFβ1 complexes (hGARP-proTGFβ1 and hLRRC33-proTGFβ1); assay: BLI (Octet)
[3] = biological target: Matrix-associated proTGFβ1 complexes (hLTBP1-proTGFβ1 and hLTBP3-proTGFβ1); assay: MSD-SET, hIgG4
[4] = biological target: Cell-associated proTGFβ1 complexes (hGARP-proTGFβ1 and hLRRC33-proTGFβ1); assay: MSD-SET, hIgG4
[5] = test system: matrix-associated vs cell-associated proTGFβ1 complexes; assay: MSD-SET: fold bias, cell average over matrix average; type: binding, human; conditions: ratio of average KD
From the text: Column (A) of the table lists monoclonal antibodies with discrete amino acid sequences. […] Columns (B), (D), (E) and (F) provide affinities of each of the listed antibodies, measured in KD. […] Average KD values of (B) and (C) are shown in the corresponding column (D), which collectively represents affinities of the antibodies to ECM- or matrix-associated proTGFβ1 complexes. Similarly, Average KD values of (E) and (F) are shown in the corresponding column (G), which collectively represents affinities of the antibodies to cell-surface or cell-associated proTGFβ1 complexes. Finally, relative ratios between the average KD values from columns (D) and (G) are expressed as “fold bias” in column (H). Thus, the greater the number of column (H) is, the greater bias exists for the particular antibody, when comparing binding preferences of the antibody for matrix-associated complexes and cell-surface complexes. This is one way of quantitatively representing and comparing inherent bias of antibodies to their target complexes. Such analyses may be useful in guiding the selection process for a candidate antibody for particular therapeutic use.
Solution equilibrium titration (“SET”) is an assay whereby binding between two molecules (such as an antigen and an antibody that binds the antigen) can be measured at equilibrium in a solution. […]

- ECM AVRG (average KD, hLTBP1 and hLTBP3 complexes) [1]: 0.246 nM
- Cell AVRG (average KD, hGARP and hLRRC33 complexes) [2]: 0.644 nM
B1: Ab21 (antibody, V domains shown)
VH: EVQLVESGGGLVQPGGSLRLSCAASGFTFSSFSMDWVRQAPGKGLEWVSYISPDASTIYYADSVKGRFTISRDNAKNSLYLQMNSLRAEDTAVYYCARGVLDYGDMLDPWGQGTLVTVSS
VL: DIQMTQSPSSLSASVGDRVTITCQASQDITNYLNWYQQKPGKAPKLLIYDASNLETGVPSRFSGSGSGTDFTFTISSLQPEDIATYYCQQADNHPPWTFGGGTKVEIK

- ECM AVRG (average KD, hLTBP1 and hLTBP3 complexes) [3]: 0.009 nM
- Cell AVRG (average KD, hGARP and hLRRC33 complexes) [4]: 0.027 nM
- ECM AVRG (average KD, hLTBP1 and hLTBP3 complexes) [1]: 0.145 nM
- Cell AVRG (average KD, hGARP and hLRRC33 complexes) [2]: 0.302 nM
B2: Ab33 (antibody, IgG4, V domains shown)
VH: B1 VH with D35N, D54S, S56D, S78T, R98H
VL: B1 VL

- ECM AVRG (average KD, hLTBP1 and hLTBP3 complexes) [3]: 0.017 nM
- Cell AVRG (average KD, hGARP and hLRRC33 complexes) [4]: 0.058 nM
- ECM AVRG (average KD, hLTBP1 and hLTBP3 complexes) [1]: 0.208 nM
- Cell AVRG (average KD, hGARP and hLRRC33 complexes) [2]: 0.495 nM
B3: Ab31 (antibody, IgG4, V domains shown)
VH: B1 VH with S78T, G99A
VL: B1 VL

- ECM AVRG (average KD, hLTBP1 and hLTBP3 complexes) [3]: 0.029 nM
- Cell AVRG (average KD, hGARP and hLRRC33 complexes) [4]: 0.081 nM
- ECM AVRG (average KD, hLTBP1 and hLTBP3 complexes) [1]: 0.296 nM
- Cell AVRG (average KD, hGARP and hLRRC33 complexes) [2]: 0.684 nM
B4: Ab30 (antibody, IgG4, V domains shown)
VH: B1 VH with V100T
VL: B1 VL

- ECM AVRG (average KD, hLTBP1 and hLTBP3 complexes) [1]: 0.328 nM
- Cell AVRG (average KD, hGARP and hLRRC33 complexes) [2]: 0.603 nM
B5: Ab28 (antibody, V domains shown)
VH: B1 VH with A97V
VL: B1 VL

- ECM AVRG (average KD, hLTBP1 and hLTBP3 complexes) [3]: 0.042 nM
- Cell AVRG (average KD, hGARP and hLRRC33 complexes) [4]: 0.114 nM
- ECM AVRG (average KD, hLTBP1 and hLTBP3 complexes) [1]: 0.324 nM
- Cell AVRG (average KD, hGARP and hLRRC33 complexes) [2]: 0.695 nM
B6: Ab22 (antibody, IgG4, V domains shown)
VH: B1 VH with S30G, D35N, S52H, P53S
VL: B1 VL

- ECM AVRG (average KD, hLTBP1 and hLTBP3 complexes) [1]: 0.208 nM
- Cell AVRG (average KD, hGARP and hLRRC33 complexes) [2]: 0.361 nM
B7: Ab27 (antibody, V domains shown)
VH: B1 VH with S31F, F32Y, S33A, D35N
VL: B1 VL

- ECM AVRG (average KD, hLTBP1 and hLTBP3 complexes) [3]: 0.026 nM
- Cell AVRG (average KD, hGARP and hLRRC33 complexes) [4]: 0.072 nM
- ECM AVRG (average KD, hLTBP1 and hLTBP3 complexes) [1]: 0.197 nM
- Cell AVRG (average KD, hGARP and hLRRC33 complexes) [2]: 0.492 nM
B8: Ab26 (antibody, IgG4, V domains shown)
VH: B1 VH with S78T
VL: B1 VL

- ECM AVRG (average KD, hLTBP1 and hLTBP3 complexes) [3]: 0.023 nM
- Cell AVRG (average KD, hGARP and hLRRC33 complexes) [4]: 0.1 nM
- ECM AVRG (average KD, hLTBP1 and hLTBP3 complexes) [1]: 0.222 nM
- Cell AVRG (average KD, hGARP and hLRRC33 complexes) [2]: 0.537 nM
B9: Ab24 (antibody, IgG4, V domains shown)
VH: B1 VH with G16R, S33A, D35Y
VL: B1 VL

- ECM AVRG (average KD, hLTBP1 and hLTBP3 complexes) [3]: 5.05 nM
- Cell AVRG (average KD, hGARP and hLRRC33 complexes) [4]: 2.3 nM
B10: Ab4 (antibody, IgG4, V domains shown)
VH: B1 VH with F32Y, D35N, P53S, D54S, A55S
VL: B1 VL
- (H) G/D (fold bias) [5]: 0.42 fold

- ECM AVRG (average KD, hLTBP1 and hLTBP3 complexes) [3]: 0.032 nM
- Cell AVRG (average KD, hGARP and hLRRC33 complexes) [4]: 0.051 nM
- ECM AVRG (average KD, hLTBP1 and hLTBP3 complexes) [1]: 0.242 nM
- Cell AVRG (average KD, hGARP and hLRRC33 complexes) [2]: 0.597 nM
B11: Ab32 (antibody, IgG4, V domains shown)
VH: B1 VH with D35N, D54S, S56D, S78T, L101W, Y103M
VL: B1 VL

- ECM AVRG (average KD, hLTBP1 and hLTBP3 complexes) [3]: 0.012 nM
- Cell AVRG (average KD, hGARP and hLRRC33 complexes) [4]: 0.024 nM
- ECM AVRG (average KD, hLTBP1 and hLTBP3 complexes) [1]: 0.155 nM
- Cell AVRG (average KD, hGARP and hLRRC33 complexes) [2]: 0.304 nM
B12: Ab29 (antibody, IgG4, V domains shown)
VH: B1 VH with G16R, S33A, D35N, D62G, A97V, G99A
VL: B1 VL

- ECM AVRG (average KD, hLTBP1 and hLTBP3 complexes) [1]: 0.443 nM
- Cell AVRG (average KD, hGARP and hLRRC33 complexes) [2]: 0.897 nM
B13: Ab23 (antibody, V domains shown)
VH: B1 VH with D35N, D54S, S56D, S78T
VL: B1 VL

- ECM AVRG (average KD, hLTBP1 and hLTBP3 complexes) [1]: 0.184 nM
- Cell AVRG (average KD, hGARP and hLRRC33 complexes) [2]: 0.449 nM
B14: Ab25 (antibody, V domains shown)
VH: B1 VH with S30G
VL: B1 VL

Reference: patent publication US20250282857A1, “TGF-BETA INHIBITORS AND USE THEREOF” (SCHOLAR ROCK, INC., priority 2021, published 2025)
